Laboratory results as given in article PMC3991680, “In Vitro Calcite Crystal Morphology Is Modulated by Otoconial Proteins Otolin-1 and Otoconin-90” (PLoS ONE, 2014).

Key:
[1] = biological target: the molecule itself; assay: atomic force microscopy; 150 nM protein in 500 mM KCl deposited on freshly cleaved mica, incubated 48 hrs, in situ imaging in tapping mode
[2] = biological target: the molecule itself; assay: rotary shadowing electron microscopy; rmOtolin-1 adsorbed on mica, rapid freezing, freeze-drying, rotary shadowing

B1: recombinant histidine tagged human Otolin-1 (natural protein, UniProt A6NHN0 24-477, looked up)
chain: KTTPHTKFTKKSEEREMPKGLKPSSGPPPEEEETLFTEMAEMAEPITKPSALDSVFGTATLSPFENFTLDPADFFLNCCDCCSPVPGQKGEPGETGQPGPKGEAGNLGIPGPPGVVGPQGPRGYKGEKGLKGERGDQGVPGYPGKPGAQGEPGPKGDKGNIGLGGVKGQKGSKGDTCGNCTKGEKGDQGAMGSPGLHGGPGAKGEKGEMGEKGEMGDKGCCGDSGERGGKGQKGEGGMKGEKGSKGDSGMEGKSGRNGLPGAKGDPGIKGEKGELGPPGLLGPTGPKGDIGNKGVRGPTGKKGSRGFKGSKGELARVPRSAFSAGLSKPFPPPNIPIKFEKILYNDQGNYSPVTGKFNCSIPGTYVFSYHITVRGRPARISLVAQNKKQFKSRETLYGQEIDQASLLVILKLSAGDQVWLEVSKDWNGVYVSAEDDSIFTGFLLYPEETSGISP
notes: Otolin-1, human; OmicsLink Expression-Ready Clone (pReceiver-M77 plasmid, GeneCopoeia) coding for human Otolin-1 with a C-terminal His tag; secreted protein; also called rhOtolin-1; human Otolin-1-His; source: HEK293-F (Freestyle Max 293), transfected; secreted into medium, purified (HisTrap); not shown: His tag, C-terminal, kept
binding result [1]: binds

B2: recombinant mouse Otolin-1-Flag (natural protein, UniProt Q4ZJM7 24-482, looked up)
chain: KTTPYTKFTKKSEGKEMLKGLKPSSGFFLDGEETVHTETAAMAEPTTGSPALAMAESTAGPSASATTRLLPFESFSLDTTGFVLNCCHCCSFVTGQKGEPGKMGKQGPKGETGDTGSPGHPGTTGPQGPKGQKGEKGLKGDRGDQGAGGIPGYPGKPGEQGALGPKGDKGTIGPAGTKGQKGSKGELCGNGTKGEKGDPGASGAHGFIGEPGAKGEKGGVGEKGYRGDLGERGEKGQKGEKGMEGEKGSRGDVGSEGKRGSDGLPGLRGDSGPKGEKGEIGSPGFTGPAGPKGELGSKGVRGPTGKKGSRGVKGSKGEATQVPQSAFSALLSKPFPPPNVPIKFDKILSNDQGDYSPVTGKFNCSVPGTYIFSYHVTVRGRPARISLVARNRKQFKSRETLYGQQVDQASLLLILKLSAGDQVWLEVSKDWNGLYVGPEDDSIFSGFLLYPEETFSKSP
notes: Otolin-1, mouse; cDNA amplified by RT-PCR from E16.5 mouse otocysts with primers from the start ATG to the last codon before the stop (FLAG added before the stop codon); secreted protein; The introduction calls rmOtolin-1 histidine tagged, the methods and results Flag tagged; also called rmOtolin-1; Flag tagged recombinant mouse Otolin-1; source: HEK293-T, stably transfected; not shown: FLAG, …
binding result [2]: binds
